Results as given in a protein production outcome set (Wang et al. 2014).

Assay: label from the status in PepcDB records

MANVAIIGTEKSGRTSLAANLGKKGTSSDITMYNNDKEGRNMVFVDAHSYPKTLKSLITALNISDIAVLCIPPQGLDAHTGECIIALDLLGFKHGIIALTRSDSTHMHAIDELKAKLKVITSGTVLQDWECISLNTNKSAKNPFEGVDELKARINEVAEKIEAENAELNSLPARIFIDHAFNVTGKGCVVLGVVKQGISKDKDKTKIFPLDRDIEIRSIQSHDVDIDSAPAGTRVGMRLKNVQAKDIERGFIISDKEIVTTDYTLECTVSKFTKKIEPASVLHLFVGLQSEPVRVEKILVDGNEVEEAKPGSTCVLELSGNKKLAYSKQDRFLLANLDLTQRFAAYGFSK
protein production: not failed

MEIFFTILILTLVVSLSGVVTRILPFQVPLPLMQIALGAILAWPQFGLHVDFNPELFMVLFIPPLLFADGWKTPTREFLRHGREIIGLALVLVLITVVGIGYFIYWMVPGMPLIAAFALAAVLSPTDAVALSGIVGEGRIPKKLMGILQGEALMNDASGLVSLKFAVAIAMGTMVFTVSGATLEFVQVALGGLLAGVGVTWIFGKSLRVISRWSGDDAATQIVLLLLLPFASYLIAEHIGVSGILAAVAAGMTIGQSGVIRSAPLTMRMRANGVWSMLEFVFNGMVFIMLGLQLPDILETSVTQAELDPTVETWMLFTDIAIIYGALLLLRFSWLWVMRTYSVHIQKKRPMVFAEFSTRELWIASFAGVRGAITLAGVLSIPLLLTDGTAFPSRYQLVFIATGVILFSLLCGVLALPFLLRGVVVADKAAHAKEIRMARMAVAEVAIKSMHKMEERLAADREENIDEQVLKEVSARVIGNLRRRLINKDDPENGLLIENLERRFRLTALNSERAELYHLRATQQISNETLQKMLRDLDLMEALLIENE
protein production: failed

MMIGENKNRPHPTIHIPQWDQINDPTATISSPFSSVNLNSVNDYPHSPSPYLDSFASLFRYLPSNELTNDSDSSSGDESSPLTDSFSSDEFRIYEFKIRRCARGRSHDWTECPFAHPGEKARRRDPRKFHYSGTACPEFRKGSCRRGDSCEFSHGVFECWLHPSRYRTQPCKDGTSCRRRICFFAHTTEQLRVLPCSLDPDLGFFSGLATSPTSILVSPSFSPPSESPPLSPSTGELIASMRKMQLNGGGCSWSSPMRSAVRLPFSSSLRPIQAATWPRIREFEIEEAPAMEFVESGKELRAEMYARLSRENSLG
protein production: failed

MKISPSLMCMDLLKFKEQIEFIDSHADYFHIDIMDGHFVPNLTLSPFFVSQVKKLATKPLDCHLMVTRPQDYIAQLARAGADFITLHPETINGQAFRLIDEIRRHDMKVGLILNPETPVEAMKYYIHKADKITVMTVDPGFAGQPFIPEMLDKLAELKAWREREGLEYEIEVDGSCNQATYEKLMAAGADVFIVGTSGLFNHAENIDEAWRIMTAQILAAKSEVQPHAKTA
protein production: failed

MKVVILGSGSYSGTPKPLCNCENCSIARRNPAFRRTRFSLYIEEGKILVDPSPDLHYHLERLNKKVENVFITHAHFDHIFGVPDLQVYKKLIISSNTLGIKVAKELSRLAFGSEVPSGYEWRYEELQFWNEYSFDNFRVIHFPVIHSLEIAGGYLFEIKGRRIGVTGDTGPEILKDEKVKKLLEGVDILIVEMTKRESIPGVHLGVSDSIEFAKVVGASYTVFAHISHTNYSHEVLEKRVRESGVQGEVARDFTIIEVLEHHHHHH
protein production: failed

FSKTQRWAEPGEPICVVCGRYGEYICDKTDEDVCSLECKAKHLLQVKEKEEKS
protein production: not failed

MLKGPLKGCLNMSKKVIVIAGTTGVGKSQLSIQLAQKFNGEVINSDSMQVYKDIPIITNKHPLQEREGIPHHVMNHVDWSEEYYSHRFETECMNAIEDIHRRGKIPIVVGGTHYYLQTLFNKRVDTKSSERKLTRKQLDILESTDPDVIYNTLVKCDPDIATKYHPNDYRRVQRMLEIYYKTGKKPSETFNEQKITLKFDTLFLWLYSKPEPLFQRLDDRVDDMLERGALQEIKQLYEYYSQNKFTPEQCENGVWQVIGFKEFLPWLTGKTDDNTVKLEDCIERMKTRTRQYAKRQVKWIKKMLIPDIKGDIYLLDATDLSQWDTNASQRAIAISNDFISNRPIKQERAPKALEELLSKGETTMKKLDDWTHYTCNVCRNADGKNVVAIGEKYWKIHLGSRRHKSNLKRNTRQADFEKWKINKKETVE
protein production: failed

FRPHFLQAPGDLTVQEGKLCRMDCKVSGLPTPDLSWQLDGKPVRPDSAHKMLVRENGVHSLIIEPVTSRDAGIYTCIATNRAGQNSFSLELVVAAKE
protein production: not failed

MAAKTRTFRAAADAWLKAKEEKGLAPSTLNKIRTYLDKDILPALGDKPLDEITRTDCAELQASIEARDAHNVAEKCRTWINQIFGRAIGLGLTENDPGSRLRDIAAQAPKTQLEHHHHHH
protein production: failed

MRSTVAEPPVLDKIIKNVRVVRPHNDAVELLDIGIKDGKFAQIAPNITPDTGQEIFDAKNLLGFPGVVDAHMHIGIYQPLDKDAVTESKAAAMGGVTTSLNYIRTGQYYLNKGGSYRDFFPEVLALSAGNFFVDYSYHVAPIASQHIDEIPLLFEEHGVTSFKIFMFYGGYGLHGLSDQQNLFLMINKEERYDFAHFEFIMRGVTRLMAEYPEARDYISLSLHCEVAEILNAYTKIVENDSSLSGLHAYSAARPPHSEGLAISIAAYLAHETNCANINLLHLSSRKAMEAALIMQTAFPHINFRREVTVGHLLLDVDTPNGTWAKVNPPIRPRADVEYLWQAVLNHQVDWIVSDHACCSAEQKRSAKDPNNIWLAKSGFGGTEYLLSGVVSEGSKRGMSYNHMAKLLSWNPSRRFGLLTKGDIAIGYDADLVLVDPNESFVVRAAESESQQGYTPFEGMELTGRVKSTFLRGSLIYHNGQVLGSPNGRYVRRSLGG
protein production: failed

SRPRLSQLSVTDVTTSSLRLNWEAPPGAFDSFLLRFGVPSPSTLEPHPRPLLQRELMVPGTRHSAVLRDLRSGTLYSLTLYGLRGPHKADSIQGTARTL
protein production: not failed

MAGRVHPRQLAFSLPHAESLSRDNFLEGPANAAGLALIDGWPEWPNRIMWLAGPEGSGKSHLAAIWAEEAGARSTTANALSAAGVPGALATGALVVEDLKAKDFDERALFHLMNLAREDGAYVLFTGRDVPAALDIELNDLRSRLRAVPVVMLLPPDDQLFRGLIVKFCADRQLTVDESVVSYLATRLERSSAAARQAVELLDSEALRLGRPVTRALAAELLRDALEHHHHHH
protein production: not failed

MSLGTIIIVDDNKGVLTAVQLLLKNHFSKVITLSSPVSLSTVLREENPEVVLLDMNFTSGINNGNEGLFWLHEIKRQYRDLPVVLFTAYADIDLAVRGIKEGASDFVVKPWDNQKLLETLLNAASQAKDGKKEGHHHHHH
protein production: not failed

MASHIVGYPRMGPKRELKFALESFWDGKSSADDLQKVSADLRSDIWKQMSAAGIKYIPSNTFSHYDQVLDTTAMLGAVPSRYGFTSGEIGLDVYFSMARGNASVPAMEMTKWFDTNYHYIVPELGPEVKFSYASHKAVNEYKEAKALGVETVPVLVGPVSYLLLSKLAKGVDKSFDLLSLLPKILPVYKEVIAELKAAGASWIQLDEPLFVMDLEGHKLQAFSGAYAELESTLSGLNVLVETYFADIPAEAYKTLTSLKGVTAFGFDLVRGTKTIDLIKSGFPQGKYLFAGVVDGRNIWANDLAASLITLQSLEGVVGKDKLVVSTSCSLLHTAVDLINETKLDAEIKSWLAFAAQKVVEVDALAKALAGQTNESFFTANADALSSRRSSPRVTNESVQKAAAALKGSDHRRTTEVSARLDAQQKKLNLPILPTTTIGSFPQTVELRRVRREYKAKKISEEDYVKAIKEEIKKVVDIQEDLDIDVLVHGEPERNDMVEYFGEQLSGFAFTANGWVQSYGSRCVKPPVIYGDVSRPKPMTVFWSSTAQSMTKRPMKGMLTGPVTILNWSFVRNDQPRHETCYQIALAIKDEVEDLEKGGIGVIQIDEAALREGLPLRKAEHSFYLDWAVHSFRITNCGVQDSTQIHTHMCYSNFNDIIHSIIDMDADVITIENSRSDEKLLSVFREGVKYGAGIGPGVYDIHSPRIPSTDEIADRINKMLAVLEQNILWVNPDCGLKTRKYTEVKPALKAMVDAAKLIRSQLGSAK
protein production: failed

MNTRPFYFGLIFIAIIAILANYLGNTDFSHHYHISALIIAILLGMAIGNTIYPQFSTQVEKGVLFAKGALLRTGIVLYGFRLTFGDIADVGLNAVVTDAIMLISTFFFTALLGIRYLKMDKQLVYLTGAGCSICGAAAVMAAEPVTKAESHKVSVAIAVVVIFGTLAIFTYPLFYTWSQHLINAHQFGIYVGSSVHEVAQVYAIGENIDPIVANTAVISKMIRVMMLAPFLLMLSWLLTRSNGVSENTSHKITIPWFAVLFIGVAIFNSFDLLPKELVKLFVEIDSFLLISSMAALGLTTQASAIKKAGLKPFVLGILTYLWLVVGGFLVNYGISKLI
protein production: failed

AIATDCEWFDMTWGSSASSGYCSQSDSDEHELELFYTARTSLRKSRKCRDKDEQSEVDWRKQDLSVTEIQQKVKEYNAQVNSNLFMVLNRDGSYTGFIKVQFKLARPVSLPPPRSVSSSSISSSCLGWDGGCQERTSFYLPRDTVKHLHISSSTRAREVIQALLNKFTVVDNPAKYSLYERSQRDNQVYLRKLADDECPLFLRLCAGPNEKVLSLVLKENETGEVNWDAFSFPELQNFLRILQREEEDHVRQIIRRYTLARDKMKEAMKNFSTPG
protein production: failed

MKEKGGDSLKYCYQCGLCDSVCPWNRVRQFSMRKIVRQGTFGLTEIEQEDIWRCSTCGTCPSRCPRGVNQIEAGVAMRRIGAEYDVLEHHHHHH
protein production: failed

MSNIECVMFDCDGTLVDSEVLCCRAYVVMFAHYDIHLSLEEVIKRFKGVKLNEIVARVSQENGLDEPIEKLEKLYRAEVARLFDAELQPIAGAKALLEQITLPVCVVSNGPVSKMQHSLGLTGLLPFFEDKLYSGYDIQRWKPDPTLIYHAAEKMHVAAERCILVEDSAAGTHAGIAAGIPVYYYCADPHNQPIHHPLVTMFDDMQQLPDLWRERGWQITSH
protein production: failed

MSSEAVDATTLVIIPTYNELENLPLIVDRVRTATPDVHVLIVDDNSPDGTGERADKLAADDDHIFVLHREGKGGLCAAYMAGFQWGLERDYQVLCEMDADGSHAPEQLHLLLAEITNGADLVIGSRYVPGGRVVNWPKNRWLLSKGGNVYISVALGAGLTDMTAGYRAFRREVLEALPLDELSNAGYIFQVEIAYRAVEAGFDVREVPITFTEREIGESKLDGSFVKDSLLEVTKWGLKHRGGQAKELSKEMVGLLNYEWKHFKKRNTWLLEHHHHHH
protein production: failed

MLETVAGVTIGASCIILTIALTKKLGPEWAWINRKLIHLSIIPAALFFYYGIIPREIFSPAAALFGIAQLLAHVKNRELNWYQLKQNYGEVFFAFSASFITFVFPRDYASALLLVMAISDGVTGIIRHYYFKRNGFNVKLKKHWTGSLGYIITAIIIAVAFLDGNIIEKVGWAFILMLAEYQPWIDDNLAVPLVGSALYFLY
protein production: failed

MGDWSKLPEELLGLIALRLYSVIELIRFRSICKSWRSSASGVNKNHSLSSPLIYFKPLQIILARAQANGQILSKYHGTVLSRATFFRVTLASSPDQGWLIKSDTDLKYRNFHLLNCLSRKALGRSRKLISLSEFIVSEIQESYAVVGRRTRETASEFKRVFLVRVQGGDHRVLVIGIDGKIRFWKGGIWNGIKKQVAQFSDFVLDEGLTYAVDTKGIMWWISSAYDIIRYGTKLHENITNGSCGEKRFVRCRGELYIVDRLIDENLLKRKADSYDDNAIVHFRNADYTNADLWEDGNGNDDFFAAQAHRFIHVLHDNLGNVSCKPFERDPPKTIGFKVYKNDEELLKWVEVKSLGDKAIVIATDACFSVSAHEFYGCLPNSIYFTDKKEEEVKVFKLDDGSITTMSESEQSCFQMFVPSFL
protein production: not failed

MTASDDAPISTDRFMFGRAQRWLHWSMALLIFAAIGLGIVAAYYPSGQQPRQGLLELHKSIGFTILALLVVRIVLRLISGEPPYRRPLGHLTEMAARAGHLALYGLMLLMPLSGYLFSGAGGYSLPWFGLFQWPRLVPRDHALSEWGQVLHDRGAWVLGAVLALHLAAVCWHQFVKRDEVLSRMTGRASES
protein production: failed

SDESGMRTYVRTLSFILSKAVADILPGSKLFIEHSLSNGYYCQIKNAHMITPGEIVRIKERMESLIVADIPFRAHCERTEEVAAMFRSMGYEDKADLLETKGMP
protein production: failed
